The record followed here is the DeepSol protein solubility set.

A short description of the series: soluble on expression in E. coli; label from the status in PepcDB or PDB records.
For “MSDMEKPWKEEEKREVLAGHARRQAPQAVDKGPVTGDQRISVTVVLRRQRGDELEAHVERQAALAPHARVHLEREAFAASHGASLDDFAEIRKFAEAHGLTLDRAHVAAGTAVLSGPVDAVNQAFGVELRHFDHPDGSYRSYVGDVRVPASIAPLIEAVLGLDTRPVARPHFRLRRRAEGEFEARSQSAAPTAYTPLDVAQAYQFPEGLDGQGQCIAIIELGGGYDETSLAQYFASLGVSAPQVVSVSVDGATNQPTGDPNGPDGEVELDIEVAGALAPGAKIAVYFAPNTDAGFLNAITTAVHDPTHKPSIVSISWGGPEDSWAPASIAAMNRAFLDAAALGVTVLAAAGDSGSTDGEQDGLYHVDFPAASPYVLACGGTRLVASAGRIERETVWNDGPDGGSTGGGVSRIFPLPSWQERANVPPSANPGAGSGRGVPDVAGNADPATGYEVVIDGETTVIGGTAAVAPLFAALVARINQKLGKPVGYLNPTLYQLPPEVFHDITEGNNDIANRARIYQAGPGWDPCTGLGSPIGIRLLQALLPSASQAQP”, the “soluble on expression in E. coli” value is listed as “soluble”. To “MSDRQAALDMALKQIEKQFGKGSIMKLGEQAERKVSTVSSGSLALDVALGVGGYPRGRIIEIYGPESSGKTTVSLHAIAEVQRQGGQAAFIDAEHAMDPVYAQKLGVNIDELLLSQPDTGEQGLEIAEALVRSGAVDIIVIDSVAALVPKAEIEGDMGDSHVGLQARLMSQALRKLSGAINKSKTIAIFINQIREKVGVMFGNPETTPGGRALKFYSTVRLEVRRAEQLKQGNDIVGNKTKVKVVKNKVAPPFRVAEVDIMYGEGISREGEILDMASELDIVQKSGAWYSYNEERLGQGRENSKQFLKENTDLREEIAFFIREHHGISEDSGAEGMEDPNLLD” belongs “not soluble”. The entry for “MSDSHHKPVWDRTHHAKMATGIGDPQCFKGMAGKSKFNVGDRVRIKDLPDLFYTRTMTYTRGATGTIVRLVYESPAAEDEAFGNEENVEWFYSIVFAQKDLWPEYSDTFANDTLETEIPERYLEKA” is “soluble”. In the case of “MSDSSNQLMPLSLSAPGVNLGAYISTVNQIPILTAEQEKELAERYYYDQDLDAAKMLVMSHLRFVVHIARSYAGYGLPQGDLIQEGNLGLMKAVKRFDPNMGVRLVSFAVHWIKAEIHEYVIRNWRIVKIATTKAQRKLFFNLRSLKKSSKKLTLEEAQSIANDLNVTPEQVLEMEGRLTAYDAAFETQGDDDDDSSTHVAPALYLEDNRYDPARLAENDDYEEQSSTALHEAMNQLDDRSRNILQRRWLDDDKSTLHELAAEYNVSAERIRQLEKNAMEKIKVAMSAG”, the “soluble on expression in E. coli” value was “not soluble”. With “MSDSSPTNLPSRAFATQKLAKLIDRWTGNANQYDTPISGLRFSRWTTPTPPTSYTHNPSICLIAQGRKRVLLGEESFIYDANHFLISSVDLPIIANIIEASEEQPYLGLIMELDLTEISQLIVDSELAFTQSKEAQKGIAVGELSESLLDAFVRLAELLDEGQNIKILAPIIKREIFYRLLMSEQGTRLHQIATAGSHSHQIAKAIDWLKNNFVKPLSVGDLASYTGMSKSSFYTHFRSMTSMTPLQFQKKLRLSEARRLMLTENLDAMAATFKVGYESPSQFSREYSRLFGAPPSKDIKSLRENLG”, the “soluble on expression in E. coli” value is reported as “not soluble”. To “MSDVDADEARKMAERERKKEEVRKRLEEASRMKKAKKGFLTPERKKKLRKLLMMKAAEDLKQQQMLKEQERQRILQERIIPLPDLDNEDDLEAVYDEIRERLIDLESENYDVSYIVRQKDFEINELTIAVNDLRGKFVKPTLKKVSKTEGKFDKLKKKEATKVDFRAQLKVVDKNEFALDEEDTEKKEKAAWAK” belongs “not soluble”; to “MSDVLITLSVELEDRPGQLLKVLQPISGMGGNIVGIVHQRGKKTPLNRLPVEISFKMDSEKVQKLIDELKSLGIIIRSFNEVRLTATTSVLLIGHLIHTDISDTISSIDVDGEAECVEMHVSMPEISGPSTAIITISASGKEKLKEAVEKLKEVCRKKEIILIEPVNEELV”, “not soluble”; to “MSEAHPPELKKFMDKKLSLKLNGGRHVQGILRGFDPFMNLVVDDTIEMAPGGQMNTIGMVVIRGNSIIMLEALERV”, “soluble”. To “MSEEPVAAPGTISHPVYKLKRNWTWWYLNDERNKSWEERLKNVKTFSSVGEFWALHDSIKPPSGLNPPSDYNVFRDGIEPMWEVPQNQNGGRWLITIEKGRTPEIMDTIWTEILMAMIGEQFSDDIESLCGIVCNVRGKGSKISVWTTNSADDGANLRIGGVLKQVLNNASMIHQRPLYDVLRYEDHESCQKKTSSGVKAKHAIYAVEPREEKAPVPVSTETPATPAT” belongs “not soluble”.

Turning to “MSEFSQTALFPSLPRTARGTAVVLGNTPAGDKIQYCNGTSVYTVPVGSLTDTEIYTEHSHQTTVAKTSPSGYYCASGDVHGNVRIWDTTQTTHILKTTIPVFSGPVKDISWDSESKRIAAVGEGRERFGHVFLFDTGTSNGNLTGQARAMNSVDFKPSRPFRIISGSDDNTVAIFEGPPFKFKSTFGEHTKFVHSVRYNPDGSLFASTGGDGTIVLYNGVDGTKTGVFEDDSLKNVAHSGSVFGLTWSPDGTKIASASADKTIKIWNVATLKVEKTIPVGTRIEDQQLGIIWTKQALVSISANGFINFVNPELGSIDQVRYGHNKAITALSSSADGKTLFSADAEGHINSWDISTGISNRVFPDVHATMITGIKTTSKGDLFTVSWDDHLKVVPAGGSGVDSSKAVANKLSSQPLGLAVSADGDIAVAACYKHIAIYSHGKLTEVPISYNSSCVALSNDKQFVAVGGQDSKVHVYKLSGASVSEVKTIVHPAEITSVAFSNNGAFLVATDQSRKVIPYSVANNFELAHTNSWTFHTAKVACVSWSPDNVRLATGSLDNSVIVWNMNKPSDHPIIIKGAHAMSSVNSVIWLNETTIVSAGQDSNIKFWNVPF”, the “soluble on expression in E. coli” value is given as “soluble”. The entry for “MSEHLTLPTNKPQVTHFSSGPCAKHPGWSVSNLENACLGRSHRSEDGKAKLSEVIERSKQILGLPADYRLGIVPASDTGAVEMALWSLLGQRPLDILAWESFGQEWVKDVVDELKLPDVRLLKAPYGGLPNLDEVDFSHDVVFLWNGTTSGVRVPNGDWIKDDRQGLTICDATSAVFAMDIPWEKIDVLTYSWQKVLGGEAQHGVIVLSPRAVERLQTYEPAWPIPKIFRLSQKGKLIEGIFKGDTINTPSMLCVEDALDALIWAESVGGLPGLISRSEANLAAIAQWVKQSNWADFLAEKPETRSCTSICLKIVDAAFASLSAEDQGKFAKKLAKLLEKQQVAYDIAPYRAAPPGLRIWGGATVETADIEALLPWLDWAYANVKAEFVPVA” is “soluble”. To “MSEIVVSKFGGTSVADFDAMNRSADIVLSDANVRLVVLSASAGITNLLVALAEGLEPGERFEKLDAIRNIQFAILERLRYPNVIREEIERLLENITVLAEAAALATSPALTDELVSHGELMSTLLFVEILRERDVQAQWFDVRKVMRTNDRFGRAEPDVAALAELAALQLLPRLNEGLVITQGFIGSENKGRTTTLGRGGSDYTAALLAEALHASRVDIWTDVPGIYTTDPRVVSAAKRIDEIAFAEAAEMATFGAKVLHPATLLPAVRSDIPVFVGSSKDPRAGGTLVCNKTENPPLFRALALRRNQTLLTLHSLNMLHSRGFLAEVFGILARHNISVDLITTSEVSVALTLDTTGSTSTGDTLLTQSLLMELSALCRVEVEEGLALVALIGNDLSKACGVGKEVFGVLEPFNIRMICYGASSHNLCFLVPGEDAEQVVQKLHSNLFE” belongs “not soluble”; to “MSELTQLAQQEKKQTYNFNKLQKRLRRNVGNAIADFGMIEDGDKVMVCLSGGKDSYTLLDILLNLQQSAPIKFDIVAVNLDQKQPGFPEHVLPEYLESIGVDYKIVQENTYGIVKEKIPEGKTTCSLCSRLRRGILYRTATELGATKIALGHHRDDMLATLFLNMFYGGKIKSMPPKLISDDGKQIVIRPLAYCKEKDIEKYAIAKEFPIIPCNLCGSQPNLQRQVVKEMLNTWDRQYPGRLETMFSAMQNITLSHMCDPKLFDFKGIKHGQLIDGIEGDTAFDEERITPMQFEDEDQTDFSNKEMINFKEVN”, “not soluble”; to “MSENHVPAWKRIALKRQTISSGDESKEKGQSNLIDDDPLNITTHLSTGNLTKKEKKRIINGESKSSTKKGKRVSKPGTKKKEKLSKDEKNSKKNKILKDQLRYLIEFFRTKSESKFPTGILELESVKENYGDSLIKDEPSESGVVEVWKFSKQKQNWLIKHFFNLDEIPSVYNDLLLLYFRDLQGKSKEELISKCKGKLKQWNDYVEDQETKIKALIAEDKASEPINGEEKEEGEKDGNAEQGKQKEVQDEQEEVQMPNKELVQRSLKLLEIWKNDDSEQIELKNFFVDV”, “soluble”. The entry for “MSEPSEKKQKVATSSLEQLKKAGTHVVADSGDFEAISKYEPQDSTTNPSLILAASKLEKYARFIDAAVEYGRKHGKTDHEKIENAMDKILVEFGTQILKVVPGRVSTEVDARLSFDKKATVKKALHIIKLYKDAGVPKERVLIKIASTWEGIQAARELEVKHGIHCNMTLLFSFTQAVACAEANVTLISPFVGRIMDFYKALSGKDYTAETDPGVLSVKKIYSYYKRHGYATEVMAASFRNLDELKALAGIDNMTLPLNLLEQLYESTDPIENKLNSESAKEEGVEKVSFINDEPHFRYVLNEDQMATEKLSDGIRKFSADIEALYKLVEEKMLEHHHH” is “soluble”; for “MSEQFEMIAKTFQGLEEILAEELTTLGANDIQIGRRMVSFTGDKRMMYKANFCLRTAIRILKPIKNFTAKDADEVYNQIQAIPWEEYLDVNKTFAIDAVVFSEEFRHSKFVSYKVKDAIVDYFRKKTGKRPSVRINNPDVLLNIHIAQTTCTLSLDSSGESLHRRGYRQEQVDAPLNEVLAAGMLLMTGWRGECDLIDPMCGSGTIPIEAALIARNIAPGVFRKGFAFEKWVDFDSEMFDEIYNDDSQEREFTHKIYGYDNNPKANEIATHNIKAAGVSKDVTLKLQPFQQFEQPQEKSIIVMNPPYGERISTNDLLGLYQMIGERLKHAFVGNEAWVLSYREECFDQIGLKPSKKVPLFNGALECEFRKYEIFDGKYKEFKSQEGEGEEKKETEGNYDTSRPRERKEFKPRGEGEFKPRREGEFKPRREGEFKPRKEGDFKPRREEGSFTRDDRDRKPRGEFRGERDSRAPREFRGNREPRIPKKEEE” it is “not soluble”. For the sequence “MSEQLTDQVLVERVQKGDQKAFNLLVVRYQHKVASLVSRYVPSGDVPDVVQEAFIKAYRALDSFRGDSAFYTWLYRIAVNTAKNYLVAQGRRPPSSDVDAIEAENFESGGALKEISNPENLMLSEELRQIVFRTIESLPEDLRMAITLRELDGLSYEEIAAIMDCPVGTVRSRIFRAREAIDNKVQPLIRR”, the “soluble on expression in E. coli” value is given as “not soluble”. As to “MSERLEVSIEGEDDFPFDEDNIQELDHFDIGEDEDPEEVAQEDAGVWQERVPLTRQKRKQVLRKPGRKRTGEIIHIPKRQPPRAVRVKSYQQYDAFDELVEQDLDDSDPEVMDDDGEPSTSKTWRIFVRKDGSGMHFDWPIFMDSAVSLKDVVNFISTDASEIPKSLICTSIPQEFTNTGTFIIHLEEGLLKEEICNDGLGTWNSAQMFVRKYVLGVGRARPLMTQKNDHNLKHIFISGFDKDEHMIPYVVICYEWMGQPHPLTVYEDQTEKQAFEQMTWKKCSNPEDQVPILARHGCDYNSAVAILLSSEKCTNYGKSVPQFVQECISFVIDINECGGDRALFLDGNEWQRPSGSHRFFRILYPNQDHGDFDTWNIERASSNFNVTNSDIQIICRRYNGQKYSQSFGFVRKIYLLKILPLCPPEVAEQLHNRDLAVISYSYRNAPHPTFIEQPDRQKLPDGQRVGEEVELVSGDVMFDDDISPEMREMVENMERKKKINSERLMELLQRIHRIDQICKKEAWLESSAEVQQLTQIAQLLHYCQ”, the “soluble on expression in E. coli” value is on record as “not soluble”. The entry for “MSESIESYGIRLLNVYRETICDGPGLHYSIYLAGCRHACPGCHNPSSWDPEAGVLMTDSILGNIIREINANPLLDGITLSGGDPFYNPAGLTCLLQRLRASCTLPIWCYTGYTLEQLETDPMLSAPLALIDVLVDGPFVRELFDPTLLWRGSSNQCIIRLHENLEHHHHHH” is “not soluble”.
